Reference: US20210023129A1, “PLATINUM PRODRUG PERFLUOROARYL PEPTIDE CONJUGATES” (MASSACHUSETTS INSTITUTE OF TECHNOLOGY, priority 2019, published 2021)
*1 amine or outer side, *2 acyl side, *3 side chain or, on linkers, in order; H or OH if unused. Where a SMILES comes first, the peptide text is derived from it. Bridges are numbered along the chain shown (N, C = ends). Perfluorobiphenyl(4,4') = Fc1c(F)c([*:1])c(F)c(F)c1-c1c(F)c(F)c([*:2])c(F)c1F; Suc = O=C(CCC(=O)[*:2])[*:1]

Experiments:
[1] = system: G30 GCs (patient-derived glioma cells); test: CellTiter-Glo luminescent cell viability assay, G30 GCs; type: cell-based, human; details: same experiment as G9 (80 hours, CellTiter-Glo), read-out: IC50 (potency) on G30 GCs
Description: The cytotoxicity of the PtIV-M13 conjugate was evaluated against patient-derived glioma cells (GCs). To evaluate the in vitro efficacy of the conjugate, G9 neurospheres were treated with PtIV-M13, prodrug 4, and cisplatin for 80 hours. After treatment, the potency of the compounds was assessed by the CellTiter-Glo luminescent cell viability assay (FIGS. 2A and 2B). The assay involves lysis of the cells and quantitation of the amount of ATP present, which is directly proportional to the number of living cells in culture. […] However, prodrug 4 was not potent, perhaps due to an inability to enter cells (FIG. 2A). As a result, in the follow-up in vitro experiment with another GC line, PtIV-L13 was used as a control instead as this should have similar properties to the PtIV-M13, only without the perfluoroaryl. The same experiment was repeated on G30 GCs.

[2] = Pharmacokinetics in healthy mice: platinum in serum and brain by GFAAS; details: tail vein; for brain distribution of platinum over time / serum concentration of platinum over time: 100 μL of 100 μM (~2.5 mg/kg), 1, 2.5 and 5 hours
Description: Pharmacokinetic and biodistribution studies were performed in healthy mice. For pharmacokinetics, 100 μL of a 100 μM solution of PtIV-M13 or PtIV-L13 dissolved in saline (corresponding to a dose of ˜2.5 mg/kg) were injected into the tail veins of mice. The brain and a blood sample were isolated at 1, 2.5, and 5 hours. A portion of the brain was dissolved in nitric acid and the amount of platinum in the brain and serum were quantified by GFAAS. […] The error bars are the standard deviation from three different animals injected with the compound. […] The error bars are the standard deviation from three different animals injected with the compound.

[3] = system: G9 neurospheres (patient-derived glioma cells); details: for IC50: read-out: IC50 against the G9 cells, treated for 80 hours, CellTiter-Glo
Description: The cytotoxicity of the PtIV-M13 conjugate was evaluated against patient-derived glioma cells (GCs). To evaluate the in vitro efficacy of the conjugate, G9 neurospheres were treated with PtIV-M13, prodrug 4, and cisplatin for 80 hours. After treatment, the potency of the compounds was assessed by the CellTiter-Glo luminescent cell viability assay (FIGS. 2A and 2B). The assay involves lysis of the cells and quantitation of the amount of ATP present, which is directly proportional to the number of living cells in culture. […] The same experiment was repeated on G30 GCs.

[4] = Biodistribution in mice: platinum in organs by GFAAS; details: tail vein, 100 μL of 100 μM in saline, after five hours
Description: To study the biodistribution, 100 μL of a 100 μM solution of PtIV-M13, PtIV-L13, or cisplatin dissolved in normal saline were injected into the tail vein of mice. After five hours, the mice were sacrificed and the brain, heart, lungs, kidney, spleen and liver were removed. The amount of platinum in each organ was measured by dissolving a portion of the respective organ in nitric acid and then quantifying the amount of platinum by GFAAS (supporting information).

| IC50 against the G9 cells ([3]; treated for 80 hours, CellTiter-Glo) | SMILES | IC50 [1] | brain distribution of platinum over time [2] | serum concentration of platinum over time [2] | IC50 [3] | increase in the amount of platinum in the brain compared with cisplatin [4] | brain uptake versus linear control PtIV-L13 ([2]; ~2.5 mg/kg, brain platinum read-out) | stability in serum versus linear control PtIV-L13 ([2]; ~2.5 mg/kg, serum platinum read-out) |
| --- | --- | --- | --- | --- | --- | --- | --- | --- |
|  | CC[C@H](C)[C@H](NC(=O)[C@H](CCCCN)NC(=O)CNC(=O)[C@H](CC(C)C)NC(=O)[C@H](CC(C)C)NC(=O)[C@H](Cc1ccc(O)cc1)NC(=O)CNC(=O)[C@H](C)NC(=O)CCC(=O)O)C(=O)N[C@@H](CC(N)=O)C(=O)N[C@@H](CC(C)C)C(=O)N[C@@H](CCCCN)C(=O)N[C@@H](C)C(=O)N[C@@H](CO)C(=O)N[C@@H](C)C(=O)N[C@@H](C)C(=O)N[C@@H](CC(C)C)C(=O)N[C@@H](C)C(=O)N[C@@H](CCCCN)C(=O)N[C@@H](CCCCN)C(=O)N[C@@H](CO)C(=O)N[C@@H](CC(C)C)C(N)=O [PtIV-L13] (Suc-AGYLLGKINLKASAALAKKSL-NH2) | 28.8 µM | increased over time | decreased over time |  |  |  |  |
|  | N.N.[Cl][Pt][Cl] [cisplatin, reference compound] |  |  |  | 4.34 ± 0.66 µM |  |  |  |
|  | CC[C@H](C)[C@H](NC(=O)[C@H](CCCCN)NC(=O)CNC(=O)[C@H](CC(C)C)NC(=O)[C@H](CC(C)C)NC(=O)[C@H](Cc1ccc(O)cc1)NC(=O)CNC(=O)[C@H](C)NC(=O)CCC(=O)O)C(=O)N[C@@H](CC(N)=O)C(=O)N[C@@H](CC(C)C)C(=O)N[C@@H](CCCCN)C(=O)N[C@@H](C)C(=O)N[C@H]1CSc2c(F)c(F)c(c(F)c2F)-c2c(F)c(F)c(c(F)c2F)SC[C@@H](C(=O)N[C@@H](CC(C)C)C(N)=O)NC(=O)[C@H](CCCCN)NC(=O)[C@H](CCCCN)NC(=O)[C@H](C)NC(=O)[C@H](CC(C)C)NC(=O)[C@H](C)NC(=O)[C@H](C)NC1=O [PtIV-M13] (Suc-AGYLLGKINLKACAALAKKCL-NH2; linker 13-20 via Perfluorobiphenyl(4,4')) | 4.04 µM | increased over time | decreased over time | 4.51 ± 0.22 µM | 15 fold | more brain uptake | more stable in serum |
| not potent | CCCCNC(=O)[O][Pt]([NH2])([NH2])([Cl])([Cl])[O]C(=O)CCC(=O)O [prodrug 4] |  |  |  |  |  |  |  |
